Data as given in the nanobody polyreactivity screen of Harvey et al. (2022).

Experiment: yeast display, Sf9 membrane polyspecificity reagent, FACS + sequencing; frameworks hold sequencing errors
Outline: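 A synthetic nanobody library was expressed on Saccharomyces cerevisiae BJ5465 by galactose induction for 36–48 hours. The library was stained for 1 hour at 4 °C with 10% biotinylated, detergent-solubilized Sf9 membrane reagent and enriched with streptavidin microbeads before FACS. Low and high (top ~1%) gates were set on anti-HA fluorescence for expression and streptavidin fluorescence for reagent binding, and each polyreactivity label reflects the gate of origin.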

For “QVQLVESGGGLVQAGGSLRLSCAASGITFYKYAMGWYRQAPGKERELVAAITSTGGRTYYADSVKGRFTISGDNAKNSVYLQMNSLKPEDTAVYYCAKVFNQFIEHDYWGQGTQVTVSS”, the “polyreactivity (PSR sort gate)” value was “low polyreactivity”.
For “QVPLVASGGGLVQAGGSLRLSCSASGRTFQYNAMGCYRQAPGKERELVAAITKRGTSTYFADSVKGRFTISRDNAKNTVYLQMNRLIPEDTAVYYCAALEGSLTGWQTYDYWGQGTQVTVSS”, the “polyreactivity (PSR sort gate)” value was “low polyreactivity”.
With “QDQLVESGGGLVHAGGSLRLSCVPPDSSSLSMLWDGIDRRLGKKGSWLPELTSRGVGTYYADSVKGRFTISRDNAKNPVYLQMNSLKPEDTAVYYCNARYEVFYRYDYWGQGTQVTVSS” the “polyreactivity (PSR sort gate)” value was “low polyreactivity”.
With “QVQLVESGGGLVQAGGSLRLSCAASGRIFHQYAMGWYRQAPGKERELVAAITTRGTSTYYADSVKGRFTISRDNAKNTVYLQMNSLKPEDTAVYYCAAKFFGSVGHVAGDYWGQGTQVTVSS” the “polyreactivity (PSR sort gate)” value was “high polyreactivity”.
With “QVQLVESGGGLVQAGGSLRLSCAASGLTFHSYAMGWYRQAPGKERELVAAINYSGGRTDYADSVKGRFTISRDNALKSVYLQMNSLQPADTAVYFCAAQRASAYYCGQGTQVTVSS” the “polyreactivity (PSR sort gate)” value was “high polyreactivity”.
With “QVQLVESGGGLVQAGGSLRLSCDASGSIFAPNSMGWYRQAPGKERELVAAITSSGCRTYYADSVKGRFTISRDNAMNTFYLQMNSLKPVDSAVYYWIAGFYVRRDYDYWGQGTQVTVSS” the “polyreactivity (PSR sort gate)” value was “low polyreactivity”.
For “QVQLVESGGGLVQAGGSLRLSCAASGSTFARYAMGWYRQAPGKERELVAVITQSGSSTYYADSVKGRFTISRDNAKNTVYLQMNSLKPEDTAVYYCAAVGIDYTRYGRYWYSYDYWGQGTQVTVSS”, the “polyreactivity (PSR sort gate)” value was “high polyreactivity”.
In the case of “QVQLVESGGGLVQAGGSLRLSCAASGITFEGYAMGWYRQAPGKERELVAAITWSGGRTYYADSVKGRFTISRDNAKNTVYLQMNSLKPEDTAVYYCAADVSDWSNQYFDSYLRMDYWGQGTQVTVSS”, the “polyreactivity (PSR sort gate)” value is reported as “low polyreactivity”.
With “QVQLVESGGGLVQAGGSLRLSCAASGYIFGRNAMGWYRQAPGKERELVAVISSRGSRTYYADSVKGRFTISRDNAKNTVYLQMNSLKPEDTAVYYCAVRGVVNFDYWGQGTQVTVSS” the “polyreactivity (PSR sort gate)” value was “high polyreactivity”.
With “QVQLVESGGGLVQAGGSLRLSCAASGSTFRFYTMGWYRQAPGKERELVAAISGSGGSTYYADSVKGRFTISRDNAKNTVYLQMNSLKPEDTAVYYCAADKSRYASHRGYWGQGTQVTVSS” the “polyreactivity (PSR sort gate)” value was “low polyreactivity”.
In the case of “QVQLQESGGGLVQAGGSLRLSSAASGSIFKVVDMGLYRQAPAKEREFVATIGEGGNTYYADSVKGRFTMSRDNAKNTVYLQKNSLKPEDTALYFYAVVLGTSYRYTYWGQGTQVTVSS”, the “polyreactivity (PSR sort gate)” value is reported as “low polyreactivity”.
For “QVQLVESGGCLVQAGGSLRLSCAASGSIGTYVMGWYRQAPGKQRELVAAITSNGGRKYYADSVKGRFTISRDNAKNTVYLQMNSLKPEDTAVYYCATVNYSPRYTMYYWGQGTQVTVSS”, the “polyreactivity (PSR sort gate)” value was “high polyreactivity”.
For “QVQLVESGGGLVQAGGSLRLSCAASGRTFIRYTMGWYRQASGKERELVAAITSTGRTYYADSVKGRFTFSRDNAKNTVYLEMNSLKPEDTAVYYCAAKQSWEVYDYWGQGTQVTVSS”, the “polyreactivity (PSR sort gate)” value was “low polyreactivity”.
In the case of “QVQLVESGGGLVKAGGSLRLSCAASGYTFLFNVMGWYRQAPGKEREIFATIRYSGGSTYYADSVKGRFTISRDNAKNTVYLQMNSLKPEDTAVYYCAARYAWYTSYCSRKYDYWGQGTQVTVSS”, the “polyreactivity (PSR sort gate)” value is reported as “high polyreactivity”.
With “QVQLVESGGGVVQAGGSLRLSCAASGFIFTFYAMGWYRQAPGKERELVAAITGRGGRTYYADSVKGRFTISRDNAKNTVYLQMNSLKPEDTAVYYCAARYRYSVTPGYVYWGQGTQVTLSS” the “polyreactivity (PSR sort gate)” value was “high polyreactivity”.
In the case of “QVQLEESGGGLVQAGGSLRLSCAASGRIFYFNTKGWYRQAPGKERELVAAISRSGTSTYYADSVKGRFTISRDFAKNTVYLQMNSLKPEDTAVYYCAARFGVKRGQYDYWGQGTQVTVSS”, the “polyreactivity (PSR sort gate)” value is reported as “high polyreactivity”.
With “QVQLVESGGGFVQAGGSLRLSCAASGRIFRLYAMGWYRQAPGKEREFVAAITFSGGRTYYADSVKGRFTISRDNAKNNVYLQMNSLKPEDTAVYYCAARGQTGYYSGVGYWGQGTQVTVSS” the “polyreactivity (PSR sort gate)” value was “high polyreactivity”.
In the case of “QVQLVESGGGLVQAGGSLRLSCAASGRIFRTKAMGWYRLAPGKERELVAAITFSGGGTYYADSVKGRFTISRDNAKNTVYLQMNSLKPEDTAVYYCATDWYYEYYYWGQGTQVTVSS”, the “polyreactivity (PSR sort gate)” value is reported as “low polyreactivity”.
For “QVQLVESGAGLVQAGGSLRLSCAASGITFSKYAMGWYRVARGKDRELVAAISSTASTNYADSVKGRFTISRDNAKNTVYLQMNSQKPDDTAVYYCNDVLFFQLFWTYDDYWGQGSQVTVSS”, the “polyreactivity (PSR sort gate)” value was “low polyreactivity”.
In the case of “PVQLVESGGGLVQAGGSLRLSCADSGNIFTYNAMGWSRPEPGTERELVAGITSAGGTYYADSVKGRFTISRDNAKNSVYLQMNSLKPEDTAVYYWNVDYDNDTVRGDKIGYSYEYWGHGTQVTVSS”, the “polyreactivity (PSR sort gate)” value is reported as “low polyreactivity”.
With “QVQLEESGGGLVQAGGSLRLSCAASGRIFWGYAMGWYRQAPGKERELVAGITYSGGSTYYADSVKGRFTISRDNAKNTVYLQMNSLKPEDTAVYYCAADATPGRGVDYWGQGTQVTVSS” the “polyreactivity (PSR sort gate)” value was “high polyreactivity”.
For “QVQLVESGGGLVQAGGSLPLSCAASGRTFDSYTMGWYRQAPGKERELVAAIRSSGGRTYADSVKGRFTISRDNAKNTVYLQMNSLKPEDTAVYYCAAARSYWAKYYYWGQGTQVTVSS”, the “polyreactivity (PSR sort gate)” value was “high polyreactivity”.
In the case of “QVQLVESGGGLVQAGGRLRLSCAASGRIFNIYAMGWYRQAPGKERELVAAISGSGGRTSYADSVKGRFTISRDNAKNTVYLQMNSLKPEDTAVYYCAADYSYYTSFRYDYWGQGTQVTVSS”, the “polyreactivity (PSR sort gate)” value is reported as “low polyreactivity”.
For “QVQLVETGGGLVQAGGSLRLSCDASGSTFVRYVMGWYRQAPGKERELVAAISRRGGSTYYADSVKGRFTISRANAKNTVYLQMNSLKPEDNAVYYCAGRGGRYFPYHGTIRYDYWGQCTQVTVSS”, the “polyreactivity (PSR sort gate)” value was “high polyreactivity”.
In the case of “QVQLVESGGGLVQAGGSLRLSCAAYGSIFWSYAMGWYIQAPGKERELVAGITRSGGSTYYSDSVKGRFTISRDNAKNPVYLQMISLKPEDTAVYYCNKAFGGDKYSGSYEYWGQGNQVTVSS”, the “polyreactivity (PSR sort gate)” value is reported as “high polyreactivity”.
In the case of “QVQLVESGGGLVQAGGSLRLSCAASGSTFDDYDMGWYRQAPGKEREFVATIDWSGGSTYYADSVKGRFTNSRDNAKNTVYLQMNSLKPEDTAVYYCTALRYVVYFDDDYWGQGTQVTVSS”, the “polyreactivity (PSR sort gate)” value is reported as “high polyreactivity”.
In the case of “QVQLVESGGGLVQAGGSLRLSCAASGSIFAVYAMGWYRQAPGKERVLVAASSTDYADSVKGRFTISRDNAKNTVYLQMNSLKTEDTAVYYCAKVGFGIPGGFYYWGQGTQVTVSS”, the “polyreactivity (PSR sort gate)” value is reported as “low polyreactivity”.
In the case of “QVQLVESGGGLVQAGGSLRLSSAAAGRLLSRDAMGWYRQAPGKERELVATLSSGGGTYYADSVKGRFTISRDNSKNTVYLQMNSLKRVDTAVYYCAVQAWYGRYYYWGQGTQVTVSS”, the “polyreactivity (PSR sort gate)” value is reported as “high polyreactivity”.
For “QVQLVESGGGLVQAGGSLRLSCAASGRIFWANAMGWYRQAPGKERELVAAINRRTGITYYADSVKGRFTISRDNAKNTVYLQMNSLNPEDTAVYYCAAARGKDGYSGQGTQVTVSS”, the “polyreactivity (PSR sort gate)” value was “high polyreactivity”.
In the case of “QVHLVESGGGLVQAGGSLRLSCAASGSTFILNAMGWYRQAPGKERELVATISSSDTSTYYADSVKGRFTISRDNAKNTVYLQMNSLKPEDTAVYYCNADYYTTSYLQRVYHYGVEYDYWGQGTQVTVSS”, the “polyreactivity (PSR sort gate)” value is reported as “low polyreactivity”.
For “QVQLVQSGGGLVHAGGSLRLSCAGSGSIFGTNAMGWYRQAPGKERELVATITSAGSTYYADSVKGRFTISRDYAKITFYLQMNSLKPEDTAVYYCARQATGYVYREYDYWGQGTQVSVSS”, the “polyreactivity (PSR sort gate)” value was “low polyreactivity”.
In the case of “QVQLVESGGGLVQAGGSLRLSCAASGFTFRGYAMGWYRPAPGKERELVAAITVRGGRTYYADSVKGRFTISRDNAKNTVYLQMNSLKPEETALYYCAKPVDRYTYSLYQQYDYWGQGTQVTVSS”, the “polyreactivity (PSR sort gate)” value is reported as “high polyreactivity”.
In the case of “QVQLVESGGGLVQAGGSLRLSCAASGSIFGRNAMGWYRQAPGKERELVAAISGRASSTFYADSVKGRFTISRDNAKNTVYLQMNSLKPEDTAVYYCAARNSYGGPTYEHYYWGQGTQVTVSS”, the “polyreactivity (PSR sort gate)” value is reported as “high polyreactivity”.
For “QVQLVESGGGLVQAGGSLRLSCAASGFTFQWYAMGWYRQAPGKERELVAGITSGASTNYADSVKGRFTISRDNAKNNVYLQMNSLKPEDTAVYYCAAGYKSRYYRNSGYYWGQGTQVTVSS”, the “polyreactivity (PSR sort gate)” value was “high polyreactivity”.
In the case of “QVQLVESGGGLVQAGGSLRLSSAASGRIFVAYAMGWYRQAPAKERELVAAITWSGTSTYADSVKGRFTISRDNAKNTVYLQMNSLKPEDTAVYYCAKKAIVSDQWDKYDYWGQGTQVTVSS”, the “polyreactivity (PSR sort gate)” value is reported as “low polyreactivity”.
In the case of “QVQLVESGGGLVQAGGSLRLSCAASGSIFGFNTMGWYRQAPGKEMELVATINWSGGSTYYADSVKGRFTISRDNAKNTVYLQMNSLKPEDTAVYYCNAGPFSGRLFTTYASWGRYDYWGQGTQVTVSS”, the “polyreactivity (PSR sort gate)” value is reported as “low polyreactivity”.
With “QVQLVESGGGLVQAGGSLRLSCAASGSTLGRYAMGWYRQAPGKERELVAAISSSGTTYYADSVKGRFTISRDNAKNTVYFQMNSLKPEDTAVYYCNARGFRVARHAAWYQYYYWGQGTQVTVSS” the “polyreactivity (PSR sort gate)” value was “high polyreactivity”.
In the case of “QVQLVESGGGLVQAGGSHRLSCAASGSTFYRYAMGWYRQAPGKEREFVAAISTRGGSTHYADSVKGRFTISRDNAKNTVYLQMNSLKPEDTAVYYCNARGYYSVPSNTGIRYYRFDYWGQGTQVTLSS”, the “polyreactivity (PSR sort gate)” value is reported as “low polyreactivity”.
For “QVQLVESGGGLVQAGGSLRLSCAASGITFYFYAMGWYRQAPGKERELVAAISGSSGSTYYADSVKGRFTISRDNAKNTVYLQMNSLKPEDTAVYYCAAYNRWSGGFEYWGQGTQVTVSS”, the “polyreactivity (PSR sort gate)” value was “high polyreactivity”.
For “QVQLVESGGGLVQAGGSLRLSCAASGSTFRSYARGWYRQAPGKERELVAVISKRGGSTYYADSVKGRFTISRDNAKNTVYLQMNSLKPEDTAVYYCAADVYRYYAPNDYYWGQGTQVTVSS”, the “polyreactivity (PSR sort gate)” value was “high polyreactivity”.
With “QVQLVESGGGLVQAGGSIRLSCAASGSTFYAYAMGWYRQAPGKERELVAAIDTGGSTYYADSVKGRFTISRDNAKNTVYLQMNSLKPEDTAVYYCNAVVDTTEYPYEYDYWGQGTQVTVSS” the “polyreactivity (PSR sort gate)” value was “low polyreactivity”.
In the case of “QVQLVESGGGLVQAGGSLRLSCAASGLIFKYYAMGWYRQAPGKERELVAAITGRGGSTYYADSVKGRFTISRDNAKNTVYLQMNSLKPEDTAVYYCARRRTYSFNPVTYDWGQGTQVTVSS”, the “polyreactivity (PSR sort gate)” value is reported as “high polyreactivity”.
For “QVQLVESGGGLVQAGGSLRLSCAASGSTFVINAMGWYRQAPGKERELVARISSSGGRTYYADSVKGRFTISRDNAKNTVYLQMNSLKPEDTAVYYCAKRGYLFLRGSVRVGYNYWGHGTQVTVSS”, the “polyreactivity (PSR sort gate)” value was “low polyreactivity”.
